Results: article PMC7745063, “Investigating the reaction and substrate preference of indole-3-acetaldehyde dehydrogenase from the plant pathogen Pseudomonas syringae PtoDC3000” (Bioscience Reports, 2020)
Substitutions are numbered along the chain they refer to. Names may count otherwise.

B1: AldA C302A mutant (enzyme)
chain: MTTLTRADWEQRAQNLKIEGRAFIQGEYTAAASGETFDCISPVDGRLLAKVASCDAADAQRAVESARSAFDSGAWSRLAPAKRKATMIRFAGLLEQNAEELALLETLDMGKPISDSLGVDIPGGARALSWSGEAIDKLYDEVAATPHDQLGLVTREPVGVVAAIVPWNFPLMMACWKLGPALSTGNSVVLKPSEKSPLTAIRIAQLAIEAGIPAGVLNVLPGYGHTVGKALALHMDVDTVVFTGSTKIAKQLMIYAGESNMKRVWLEAGGKSPNIVFADAPDLQAAADSAASAIAFNQGEVATAGSRLLVERSIKDRFLPMVIEALGTWKPGNPLDPATNVGALVDTQQMNTVLSYIAAGHTDGARLVAGGKQILQETGGTYVEPTIFDGVNNAMRIAQEEIFGPVLSVLTFDTAEEAIQIANDTPYGLAAAVWTANLSKAHLTARALRAGSVWVNQYDGGDMTAPFGGFKQSGNGRDKSLHAFDKYTELKSTWIKL
notes: source: E. coli BL21 (DE3), purified (Ni-NTA, Superdex-200 size-exclusion)
B2: AldA E267Q mutant (enzyme)
chain: B1 chain with E267Q, A302C
notes: as for B1
B3: AldA indole-3-acetaldehyde dehydrogenase from Pseudomonas syringae strain PtoDC3000, wild-type (enzyme)
chain: B1 chain with A302C
notes: also called wild-type AldA; WT; source: E. coli BL21 (DE3), purified (Ni-NTA, Superdex-200 size-exclusion)
B4: AldA E267A mutant (enzyme)
chain: B1 chain with E267A, A302C
notes: as for B1

Tests used:
[1] = target: the molecule itself; assay: crystal structure; AldA C302A with IAA and NAD+, hanging drop at 4°C, 24% PEG-1000, 100 mM Tris/HCl pH 7.0; 2.85 Å; eight monomers in the asymmetric unit
SEC = target: the molecule itself; assay: SEC

| Protein | stoichiometry N [1] | stoichiometry N (SEC) |
| --- | --- | --- |
| B1 | 4 |  |
| B2 |  | 4 |
| B3 |  | 4 |
| B4 |  | 4 |
